Measurements published in doi:10.1101/2020.05.05.078782.

Molecular target: BD1 bromodomain construct (residues 44-168) of human Brd4 (human) (UniProt O60885)
Test: SPR

Row | Substance | Kd [µM]
1 | YFV-C (residues 1-11) peptide acetylated at lysine 4 | 362
2 | YFV-C (residues 1-11) peptide acetylated at lysine 8 | 540
